Test results reported in PMC5932363.
pKd: −log10 of the molar value.

Biological target: Proteinase 3 (PR3), purified (UniProt P24158)
Assay: SPR; BIAcore 3000; PR3 immobilised on a CM5 chip by amine coupling; C1q, gC1q or cC1q as soluble analytes; 50 mM Tris, 150 mM NaCl, 2 mM Ca2+, 0.005% surfactant P20, pH 7.4; flow 20 µl/min; global fit to a 1:1 Langmuir model; apparent KD from koff/kon

Chain of Proteinase 3 (PR3), purified (P24158 28-248): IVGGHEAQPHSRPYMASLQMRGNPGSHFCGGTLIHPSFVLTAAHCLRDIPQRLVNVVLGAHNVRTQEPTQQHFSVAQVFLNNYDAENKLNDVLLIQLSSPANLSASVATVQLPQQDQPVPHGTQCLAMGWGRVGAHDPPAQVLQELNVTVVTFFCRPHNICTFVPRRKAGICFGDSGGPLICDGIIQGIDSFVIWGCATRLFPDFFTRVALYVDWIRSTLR

pKd: 6.40
koff: 0.0072 s⁻¹
kon: 18000 M⁻¹ s⁻¹
Substance: globular region of C1q (gC1q) (domain or fragment)
